Reference: PMC12205875, “CRY1–GAIP1 complex mediates blue light to hinder the repression of PIF5 on AGL5 to promote carotenoid biosynthesis in mango fruit”

T1: MiGAIP1 (DELLA) (Mangifera indica, UniProt UPI001CFB1029 1-553)
T1 sequence: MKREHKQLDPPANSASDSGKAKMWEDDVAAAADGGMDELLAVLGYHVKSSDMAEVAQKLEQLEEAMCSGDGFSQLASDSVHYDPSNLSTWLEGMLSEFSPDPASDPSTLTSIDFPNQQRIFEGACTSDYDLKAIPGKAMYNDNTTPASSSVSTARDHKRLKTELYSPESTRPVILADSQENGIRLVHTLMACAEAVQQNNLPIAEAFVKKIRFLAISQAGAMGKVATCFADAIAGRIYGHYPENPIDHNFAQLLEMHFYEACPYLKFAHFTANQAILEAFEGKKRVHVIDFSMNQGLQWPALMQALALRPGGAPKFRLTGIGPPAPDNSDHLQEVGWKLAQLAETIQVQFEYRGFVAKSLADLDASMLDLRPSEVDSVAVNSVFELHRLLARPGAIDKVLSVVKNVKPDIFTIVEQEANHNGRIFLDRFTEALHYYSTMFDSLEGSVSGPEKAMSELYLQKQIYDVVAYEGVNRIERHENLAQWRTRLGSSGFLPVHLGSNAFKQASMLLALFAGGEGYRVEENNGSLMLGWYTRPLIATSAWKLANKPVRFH

T2: MiPIF5 (Mangifera indica, UniProt UPI001CFAADE4 1-539)
T2 sequence: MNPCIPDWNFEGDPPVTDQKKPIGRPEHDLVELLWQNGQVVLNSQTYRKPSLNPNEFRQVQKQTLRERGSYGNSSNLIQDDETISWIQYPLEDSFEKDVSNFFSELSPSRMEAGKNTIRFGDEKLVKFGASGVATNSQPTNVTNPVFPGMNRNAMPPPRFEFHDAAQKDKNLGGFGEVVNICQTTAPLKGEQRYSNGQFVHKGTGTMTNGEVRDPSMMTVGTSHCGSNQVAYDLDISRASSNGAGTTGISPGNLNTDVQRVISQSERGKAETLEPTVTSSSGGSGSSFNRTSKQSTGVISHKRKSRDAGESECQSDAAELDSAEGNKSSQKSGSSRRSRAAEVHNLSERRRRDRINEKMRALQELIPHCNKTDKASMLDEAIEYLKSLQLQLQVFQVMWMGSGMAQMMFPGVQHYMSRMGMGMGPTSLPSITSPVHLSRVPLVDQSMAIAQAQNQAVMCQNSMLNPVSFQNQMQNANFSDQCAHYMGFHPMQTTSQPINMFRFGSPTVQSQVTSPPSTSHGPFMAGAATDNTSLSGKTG

B1: ProMiAGL5-Probe (MiGAIP1) (dsDNA)
DNA 1: TTTCAACAATCAAGAAATGAGAAAGGAAAGAAGAAAAAAGAAAGAAAAAAAAAAAAAGTGTCT
DNA 2: AGACACTTTTTTTTTTTTTCTTTCTTTTTTCTTCTTTCCTTTCTCATTTCTTGATTGTTGAAA
B2: ProMiAGL5-Probe (MiPIF5) (dsDNA)
DNA 1: GAGCATCACATGGGAGTCTATTTTCACTTTGTAATTTGAAAAGGAAAGAGATATATAC
DNA 2: GTATATATCTCTTTCCTTTTCAAATTACAAAGTGAAAATAGACTCCCATGTGATGCTC

How the values were obtained:
[1] = molecular target: T1, MiGAIP1 (DELLA); assay: EMSA; LightShift Chemiluminescent EMSA kit (Thermo) per manufacturer; buffer, salt, pH and temperature not stated; settings: protein: recombinant; tags: GST (pGEX4T); label: 3' biotin; blunt
[2] = molecular target: T2, MiPIF5; assay: as above; settings: protein: recombinant; tags: GST (pGEX4T); chain copies: 2; label: 3' biotin; blunt

Row | Binder | binding result [1] | binding result [2]
1 | B1 | binds | 
2 | B2 |  | binds
